Reference: article PMC8284803
Where two headings read alike, the source gives them in different places.

How the values were obtained:
Experiment in all cases: EMSA
[1] = molecular target: hMSH4 (hMutSγ subunit);hMSH5 (hMutSγ subunit) (Homo sapiens;Homo sapiens, UniProt O15457;O43196 1-936;1-834, |)
[2] = molecular target: T1, hMLH1 (hMutLγ subunit);hMLH3 (hMutLγ subunit) (Homo sapiens;Homo sapiens, UniProt P40692;Q9UHC1 1-756;1-1453, |)
[3] = molecular target: T1, hMLH1 (hMutLγ subunit);hMLH3 (hMutLγ …); remark: listed apart in the source
[4] = molecular target: T1, hMLH1 (hMutLγ subunit);hMLH3 (hMutLγ …); remark: listed apart in the source

Row | Binder | Kd [2] [nM] | binding result [3] | further results
1 | HJ (Holliday junction) (structured_DNA) DNA 1: CTAGTATAGAGCCGGCGCGCCATGTCTAGATAGCGTTAGGTCTGCCGAATAGTACTACTCGGATCCCGAGCGAACCACGC DNA 2: GCGTGGTTCGCTCGGGATCCGAGTAGTACTATTCGGCAGAGGATTCGAATAGGCCTAATCGAATTCCGCCATCGATGCAC DNA 3: GTGCATCGATGGCGGAATTCGATTAGGCCTATTCGAATCCAGACGCGAGTAGATCTTCACGGTACCCGCGGTTACCCGTG DNA 4: CACGGGTAACCGCGGGTACCGTGAAGATCTACTCGCGTCTCCTAACGCTATCTAGACATGGCGCGCCGGCTCTATACTAG | ~38 | – | binding result [1]: binds
2 | 80mer with 5 nt gap (mixed) DNA 1: CTAGTATAGAGCCGGCGCGCCATGTCTAGATAGCGTTAGGTCTGCCGAATAGTACTACTCGGATCCCGAGCGAACCACGC DNA 2: GCGTGGTTCGCTCGGGATCCGAGTAGTACTATTCGG DNA 3: CTAACGCTATCTAGACATGGCGCGCCGGCTCTATACTAG | – | no binding | –
3 | gHJ (gapped HJ) (structured_DNA) DNA 1: CTAGTATAGAGCCGGCGCGCCATGTCTAGATAGCGTTAGGTCTGCCGAATAGTACTACTCGGATCCCGAGCGAACCACGC DNA 2: GCGTGGTTCGCTCGGGATCCGAGTAGTACTATTCGGCAGAGGATTCGAATAGGCCTAATCGAATTCCGCCATCGATGCAC DNA 3: GTGCATCGATGGCGGAATTCGATTAGGCCTATTCGAATCCAGACGCGAGTAGATCTTCACGGTACCCGCGGTTACCCGTG DNA 4: CACGGGTAACCGCGGGTACCGTGAAGATCTACTCGCGTCTCCTAA DNA 5: CCGGCTCTATACTAG | ~16 | – | –
4 | 80mer with 20 nt gap (mixed) DNA 1: CTAGTATAGAGCCGGCGCGCCATGTCTAGATAGCGTTAGGTCTGCCGAATAGTACTACTCGGATCCCGAGCGAACCACGC DNA 2: GCGTGGTTCGCTCGGGATCCGAGTAGTACT DNA 3: TCTAGACATGGCGCGCCGGCTCTATACTAG | – | binds | –
5 | 80mer with 10 nt gap (mixed) DNA 1: CTAGTATAGAGCCGGCGCGCCATGTCTAGATAGCGTTAGGTCTGCCGAATAGTACTACTCGGATCCCGAGCGAACCACGC DNA 2: GCGTGGTTCGCTCGGGATCCGAGTAGTACTATTCG DNA 3: CGCTATCTAGACATGGCGCGCCGGCTCTATACTAG | – | no binding | –
6 | 80mer with 40 nt gap (mixed) DNA 1: CTAGTATAGAGCCGGCGCGCCATGTCTAGATAGCGTTAGGTCTGCCGAATAGTACTACTCGGATCCCGAGCGAACCACGC DNA 2: GCGTGGTTCGCTCGGGATCC DNA 3: GCGCGCCGGCTCTATACTAG | – | – | binding result [4]: binds
